In publication PMC5027513 (Nucleic Acids Research, 2016):

Columns and labels:
[1] = biological target: T1, TnpA (IS608 transposase, Y1 HuH) (UniProt Q933Z0 1-155); assay: EMSA
T1 sequence: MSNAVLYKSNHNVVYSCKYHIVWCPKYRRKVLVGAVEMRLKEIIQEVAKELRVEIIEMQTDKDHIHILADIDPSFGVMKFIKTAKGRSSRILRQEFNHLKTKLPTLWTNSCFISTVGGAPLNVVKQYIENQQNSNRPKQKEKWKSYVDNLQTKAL

[2] = biological target: T1, TnpA (IS608 transposase, Y1 HuH); assay: EMSA; remark: listed apart in the source
[3] = biological target: T1, TnpA (IS608 transposase, Y1 HuH); assay: EMSA; remark: listed apart in the source
two-hybrid = biological target: the molecule itself; assay: two-hybrid
[4] = biological target: T1, TnpA (IS608 transposase, Y1 HuH); assay: competition
Ssb = Ssb (UniProt P0AGE0 1-178); assay: EMSA
Sequence of Ssb (P0AGE0 whole entry): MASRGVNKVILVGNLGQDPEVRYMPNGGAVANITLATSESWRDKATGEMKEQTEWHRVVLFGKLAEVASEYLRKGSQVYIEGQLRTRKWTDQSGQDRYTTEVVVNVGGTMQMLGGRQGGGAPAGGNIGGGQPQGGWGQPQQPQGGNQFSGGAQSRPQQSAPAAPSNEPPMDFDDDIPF

B1: ss60 (LE80 with 60-nt ss tail, S46) (structured_DNA)
DNA: CGCTAGTGCAAAAATTACCAAAACTAACGCCTTAAAGCCCCTAGCTTTTAGCTATGGGGATACAAGGCGAAACGCCTTCTGATGTCCTGTCGCCTCTGCCCGAAGACTCTAGATCGATTCAAGCTTCGCCTCTCAGCT
binding result [1]: binds

B2: ds60 (S46 + S44) (mixed)
DNA 1: B1 DNA
DNA 2: AGCTGAGAGGCGAAGCTTGAATCGATCTAGAGTCTTCGGGCAGAGGCGACAGGACATCAG
binding result [2]: binds

B3: fork / flap (L73 + L76l + L77) (mixed)
DNA 1: GTGATGACCTGTCGCCTCTGCCCGAAGACTCTAGATCGATACAAGCTACGCCTCTCAGCTCCGATGATGACGCTC
DNA 2: GAGCGTCATCATCGGAGCTGAGAGGCGTAGCTTGTATCTAGGAAGCCGCTGTAGCTCTCGCAATCAGCAGCCTTGTGCCG
DNA 3: CGGCACAAGGCTGCTGATTGCGAGAGCTACAGCGGCTTCCTA
binding result [3]: binds

B4: TnpAIS608, transposase of IS608, BACTH hybrid (T25-TnpAIS608 or TnpAIS608-T18) (enzyme, Helicobacter pylori (IS608), UniProt Q933Z0 1-155, looked up)
chain: T1 sequence
β-galactosidase activity, fold above negative control (two-hybrid): 5 fold

B5: LE100 (structured_DNA)
DNA: CGGGCTGCAGGAATTCGATTTGCGCTAGTGCAAAAATTACCAAAACTAACGCCTTAAAGCCCCTAGCTTTTAGCTATGGGGATACAAGGCGAAACGCCTT
binding result [4]: binds

B6: ss target 125 nt (S56) (ssDNA)
DNA: GTGATGTCCTGTCGCCTCTGCCCGAAGACTCTATTACGATTCAAGCTTCGCCTCTCAGCTCCGATGATGTCGCTCATGCCTGCAGCAATGGCAACAACGAACGGCAAACTATTAACTGGCGAACT
binding result (Ssb): binds
